Reference: patent US20240132578A1

Legend:
[1] = molecular target: HIV-1 Env of isolate NL43 (HIV-1); test: cell-based or functional assay
[2] = molecular target: HIV-1 Env of isolate PVO.4 (HIV-1); test: cell-based or functional assay
[3] = molecular target: HIV-1 Env of isolate 92UG037 (pseudovirus) (HIV-1); test: cell-based or functional assay
[4] = molecular target: HIV-1 Env of isolate MGRM-Chronic-B-012 (HIV-1); test: cell-based or functional assay
[5] = molecular target: HIV-1 Env of isolate MGRM-Chronic-B-017 (HIV-1); test: cell-based or functional assay
[6] = molecular target: HIV-1 Env of isolate THR0.18 (HIV-1); test: cell-based or functional assay
[7] = molecular target: HIV-1 Env of isolate 94UG103 (pseudovirus) (HIV-1); test: cell-based or functional assay
[8] = molecular target: HIV-1 Env of pseudovirus isolate MGRM-C-026 (clade C) (HIV-1); test: cell-based or functional assay
[9] = molecular target: HIV-1 Env of isolate 93UG077 (pseudovirus) (HIV-1); test: cell-based or functional assay
[10] = molecular target: HIV-1 Env of isolate 92WR021 (pseudovirus) (HIV-1); test: cell-based or functional assay
[11] = molecular target: HIV-1 Env of isolate VLGCB3 (HIV-1); test: cell-based or functional assay
[12] = molecular target: HIV-1 Env of isolate 93MW959 (HIV-1); test: cell-based or functional assay
[13] = molecular target: HIV-1 Env of isolate 92UG031 (pseudovirus) (HIV-1); test: cell-based or functional assay
[14] = molecular target: HIV-1 Env of isolate MGRM-Chronic-B-011 (HIV-1); test: cell-based or functional assay
[15] = molecular target: HIV-1 Env of isolate 93IN905 (HIV-1); test: cell-based or functional assay
[16] = molecular target: HIV-1 Env of isolate TRJ04551.58 (HIV-1); test: cell-based or functional assay
[17] = molecular target: HIV-1 Env of isolate MGRM-AG-001 (subtype AG) (HIV-1); test: cell-based or functional assay
[18] = molecular target: HIV-1 Env of isolate MGRM-Chronic-B-010 (HIV-1); test: cell-based or functional assay
[19] = molecular target: HIV-1 Env of isolate 92WR020 (pseudovirus) (HIV-1); test: cell-based or functional assay
[20] = molecular target: HIV-1 Env of isolate 98IN022 (HIV-1); test: cell-based or functional assay
[21] = molecular target: HIV-1 Env of isolate MGRM-D-016 (pseudovirus) (HIV-1); test: cell-based or functional assay
[22] = molecular target: HIV-1 Env of isolate MGRM-Chronic-B-023 (HIV-1); test: cell-based or functional assay
[23] = molecular target: HIV-1 Env of isolate QH0692.42 (HIV-1); test: cell-based or functional assay
[24] = molecular target: HIV-1 Env of isolate TRO.11 (HIV-1); test: cell-based or functional assay
[25] = molecular target: HIV-1 Env of isolate SF162 (HIV-1) (UniProt P19550); test: cell-based or functional assay
[26] = molecular target: HIV-1 Env of isolate 97ZA012 (HIV-1); test: cell-based or functional assay
[27] = molecular target: HIV-1 Env of isolate MGRM-Chronic-B-018 (HIV-1); test: cell-based or functional assay
[28] = molecular target: HIV-1 Env of isolate 93WR029 (pseudovirus) (HIV-1); test: cell-based or functional assay
[29] = molecular target: HIV-1 Env of isolate JRCSF (HIV-1) (UniProt P20871); test: cell-based or functional assay
[30] = molecular target: HIV-1 Env of isolate 92WR024 (pseudovirus) (HIV-1); test: cell-based or functional assay
[31] = molecular target: HIV-1 Env of isolate MGRM-Chronic-B-024 (HIV-1); test: cell-based or functional assay
[32] = molecular target: HIV-1 Env of isolate SC422661.8 (HIV-1); test: cell-based or functional assay
[33] = molecular target: HIV-1 Env of isolate MGRM-Chronic-B-020 (HIV-1); test: cell-based or functional assay
[34] = molecular target: WT JR-FL gp120 (HIV-1 JR-FL); test: ELISA, antigen-coated wells, mAb titrated; EC50 by nonlinear regression
[35] = molecular target: HIV-1 92RW020 Env (HIV-1); test: cell-based or functional assay

Substance	IC50 (µg/mL), pseudovirus neutralization [1] [µg/mL]	IC50 (µg/mL), pseudovirus neutralization [3] [µg/mL]	IC50 (µg/mL), pseudovirus neutralization [4] [µg/mL]	IC50 (µg/mL), pseudovirus neutralization [5] [µg/mL]	IC50 (µg/mL), pseudovirus neutralization [6] [µg/mL]	IC50 (µg/mL), pseudovirus neutralization [7] [µg/mL]	IC50, pseudovirus neutralization [8] [µg/mL]	IC50 (µg/mL), pseudovirus neutralization [9] [µg/mL]	IC50 (µg/mL), pseudovirus neutralization [10] [µg/mL]	IC50 (µg/mL), pseudovirus neutralization [11] [µg/mL]	IC50 (µg/mL), pseudovirus neutralization [12] [µg/mL]	IC50 (µg/mL), pseudovirus neutralization [13] [µg/mL]	IC50 (µg/mL), pseudovirus neutralization [14] [µg/mL]	IC50 (µg/mL), pseudovirus neutralization [15] [µg/mL]	IC50 (µg/mL), pseudovirus neutralization [16] [µg/mL]	IC50, pseudovirus neutralization [17] [µg/mL]	IC50 (µg/mL), pseudovirus neutralization [18] [µg/mL]	IC50 (µg/mL), pseudovirus neutralization [19] [µg/mL]	IC50 (µg/mL), pseudovirus neutralization [20] [µg/mL]	IC50 (µg/mL), pseudovirus neutralization [21] [µg/mL]	other results
5136_H01 (PGT-131) (antibody)	> 50	0.048	15.7	> 50	> 50	1.1	1.67	> 50	0.012	> 50	> 50	> 50	6.47	0.177	0.088	> 50	0.016	0.168	> 50	> 50	IC50 (µg/mL), pseudovirus neutralization [2]: > 50 µg/mL; IC50 (µg/mL), pseudovirus neutralization [22]: > 50 µg/mL; IC50 (µg/mL), pseudovirus neutralization [23]: > 50 µg/mL; IC50 (µg/mL), pseudovirus neutralization [24]: 1.91 µg/mL; IC50 (µg/mL), pseudovirus neutralization [25]: 0.025 µg/mL; IC50 (µg/mL), pseudovirus neutralization [26]: 1.81 µg/mL; IC50 (µg/mL), pseudovirus neutralization [27]: > 50 µg/mL; IC50 (µg/mL), pseudovirus neutralization [28]: > 50 µg/mL; IC50 (µg/mL), pseudovirus neutralization [29]: 0.029 µg/mL; IC50 (µg/mL), pseudovirus neutralization [30]: > 50 µg/mL; IC50 (µg/mL), pseudovirus neutralization [31]: > 50 µg/mL; IC50 (µg/mL), pseudovirus neutralization [32]: > 50 µg/mL; IC50 (µg/mL), pseudovirus neutralization [33]: 0.053 µg/mL; EC50 [34]: 0.4 µg/mL
5114_A19 (PGT-128) (antibody)	> 50	0.006	0.026	> 50	> 50	0.011	0.007	0.014	0.005	0.012	0.045	> 50	0.02	0.009	0.019	4.73	0.004	0.005	0.014	> 50	IC50 (µg/mL), pseudovirus neutralization [2]: 0.005 µg/mL; IC50 (µg/mL), pseudovirus neutralization [22]: > 50 µg/mL; IC50 (µg/mL), pseudovirus neutralization [23]: 0.029 µg/mL; IC50 (µg/mL), pseudovirus neutralization [24]: 0.018 µg/mL; IC50 (µg/mL), pseudovirus neutralization [25]: 0.007 µg/mL; IC50 (µg/mL), pseudovirus neutralization [26]: 0.019 µg/mL; IC50 (µg/mL), pseudovirus neutralization [27]: 0.02 µg/mL; IC50 (µg/mL), pseudovirus neutralization [28]: > 50 µg/mL; IC50 (µg/mL), pseudovirus neutralization [29]: 0.003 µg/mL; IC50 (µg/mL), pseudovirus neutralization [30]: > 50 µg/mL; IC50 (µg/mL), pseudovirus neutralization [31]: > 50 µg/mL; IC50 (µg/mL), pseudovirus neutralization [32]: 1.58 µg/mL; IC50 (µg/mL), pseudovirus neutralization [33]: 0.007 µg/mL; EC50 [34]: 0.1 µg/mL
5345_I01 (PGT-137) (antibody)	17.4	> 50	> 50	> 50	> 50	> 50	0.011	> 50	3.52	3.36	> 50	> 50	> 50	0.042	> 50	> 50	> 50	0.005	0.408	> 50	IC50 (µg/mL), pseudovirus neutralization [22]: > 50 µg/mL; IC50 (µg/mL), pseudovirus neutralization [23]: > 50 µg/mL; IC50 (µg/mL), pseudovirus neutralization [24]: 9.35 µg/mL; IC50 (µg/mL), pseudovirus neutralization [25]: 3.41 µg/mL; IC50 (µg/mL), pseudovirus neutralization [26]: > 50 µg/mL; IC50 (µg/mL), pseudovirus neutralization [27]: > 50 µg/mL; IC50 (µg/mL), pseudovirus neutralization [28]: > 50 µg/mL; IC50 (µg/mL), pseudovirus neutralization [29]: > 50 µg/mL; IC50 (µg/mL), pseudovirus neutralization [30]: > 50 µg/mL; IC50 (µg/mL), pseudovirus neutralization [31]: > 50 µg/mL; IC50 (µg/mL), pseudovirus neutralization [32]: > 50 µg/mL; IC50 (µg/mL), pseudovirus neutralization [33]: 32.9 µg/mL; EC50 [34]: 0.1 µg/mL
5343_B08 (PGT-135) (antibody)	8.03	3.67	0.166	> 50	> 50	> 50	0.004	> 50	> 50	0.142	> 50	> 50	> 50	0.011	> 50	> 50	> 50	0.067	0.014	> 50	IC50 (µg/mL), pseudovirus neutralization [2]: > 50 µg/mL; IC50, pseudovirus neutralization [35]: 0.157 µg/mL; IC50 (µg/mL), pseudovirus neutralization [22]: 0.329 µg/mL; IC50 (µg/mL), pseudovirus neutralization [23]: > 50 µg/mL; IC50 (µg/mL), pseudovirus neutralization [24]: 0.03 µg/mL; IC50 (µg/mL), pseudovirus neutralization [25]: 0.023 µg/mL; IC50 (µg/mL), pseudovirus neutralization [26]: > 50 µg/mL; IC50 (µg/mL), pseudovirus neutralization [27]: > 50 µg/mL; IC50 (µg/mL), pseudovirus neutralization [28]: > 50 µg/mL; IC50 (µg/mL), pseudovirus neutralization [29]: 0.131 µg/mL; IC50 (µg/mL), pseudovirus neutralization [30]: > 50 µg/mL; IC50 (µg/mL), pseudovirus neutralization [31]: > 50 µg/mL; IC50 (µg/mL), pseudovirus neutralization [32]: 21.8 µg/mL; IC50 (µg/mL), pseudovirus neutralization [33]: 0.057 µg/mL; EC50 [34]: 0.1 µg/mL
